Assays:
[1] = target: T1, anti-VEGF/ANG2 antibody (IgG1 subclass with mutations P329G/L234A/L235A/I253A/H310A/H435A); experiment: ELISA assay C, tracer FcγRI-Dig, target 6 ng/mL
T1 construct: Format of the bispecific antibody not described; Positions are EU numbers, not positions on the UniProt entry; also called sample 1; antibody 1

[2] = target: T2, anti-VEGF/ANG2 antibody (IgG1 subclass with mutations P329G/L234A/L235A); experiment: ELISA assay C, tracer FcγRI-Dig, target 6 ng/mL
T2 construct: Positions are EU numbers; also called sample 2; antibody 2

[3] = target: T3, anti-IGF-1R antibody (IgG1 subclass with mutations I253A/H310A/H435A); experiment: ELISA assay C, tracer FcγRI-Dig, target 6 ng/mL
T3 construct: Positions are EU numbers; also called sample 3; antibody 3

[4] = target: T4, anti-P-Selectin antibody (IgG4 subclass with mutations S228P/L235E); experiment: ELISA assay C, tracer FcγRI-Dig, target 6 ng/mL
T4 construct: Positions are EU numbers; also called sample 4; antibody 4

[5] = target: T5, anti-VEGF/ANG2 antibody (wild-type IgG1 subclass) (UniProt P01857-1 1-330 = IgG part); experiment: ELISA assay C, tracer FcγRI-Dig, target 6 ng/mL
T5 construct: also called sample 5; antibody 5

[6] = target: T1, anti-VEGF/ANG2 antibody (IgG1 subclass …); experiment: ELISA assay B, tracer M1.7.10-Dig, target 6 ng/mL
Procedure: (§1) Biotinylated anti-PG Fc-region antibody or biotinylated anti-AAA Fc-region antibody, respectively, was bound to the wells of a streptavidin-coated multi-well plate (SA-MTP) to produce a capture plate. Excess of unbound antibody was removed by washing. Sample/standard antibodies spiked in human and cynomolgus monkey serum (10% final concentration) was added to wells of the SA-MTP multi-well plate coated with the capture plate and incubated for 1 hour at room temperature. After washing, the wells were incubated with digoxygenylated anti-human kappa antibody M1.7.10 (see e.g. WO 2011/048043, incorporated herein by reference). After washing the bound digoxygenylated anti-human kappa antibody complex was incubated with a horseradish peroxidase (HRP) labelled anti-digoxygenin antibody. After another washing step, an ABTS solution was added to the wells and incubated. The product of the color reaction was measured by Elisa reader at 405 nm wavelength (reference wavelength: 490 nm). Absorbance values of each sample or standard were determined in triplicates.

[7] = target: T2, anti-VEGF/ANG2 antibody (IgG1 subclass …); experiment: ELISA assay B, tracer M1.7.10-Dig, target 6 ng/mL
Procedure: as §1

[8] = target: T3, anti-IGF-1R antibody (IgG1 subclass …); experiment: ELISA assay B, tracer M1.7.10-Dig, target 6 ng/mL
Procedure: as §1

[9] = target: T4, anti-P-Selectin antibody (IgG4 subclass …); experiment: ELISA assay B, tracer M1.7.10-Dig, target 6 ng/mL
Procedure: as §1

[10] = target: T5, anti-VEGF/ANG2 antibody (wild-type IgG1 …); experiment: ELISA assay B, tracer M1.7.10-Dig, target 6 ng/mL
Procedure: as §1

[11] = target: T2, anti-VEGF/ANG2 antibody (IgG1 subclass …); experiment: ELISA assay C, tracer FcγRI-Dig, target 100 ng/mL
[12] = target: T4, anti-P-Selectin antibody (IgG4 subclass …); experiment: ELISA assay C, tracer FcγRI-Dig, target 100 ng/mL
[13] = target: T5, anti-VEGF/ANG2 antibody (wild-type IgG1 …); experiment: ELISA assay C, tracer FcγRI-Dig, target 100 ng/mL
[14] = target: T1, anti-VEGF/ANG2 antibody (IgG1 subclass …); experiment: ELISA assay B, tracer M1.7.10-Dig, target 13 ng/mL
Procedure: as §1

[15] = target: T2, anti-VEGF/ANG2 antibody (IgG1 subclass …); experiment: ELISA assay B, tracer M1.7.10-Dig, target 13 ng/mL
Procedure: as §1

[16] = target: T3, anti-IGF-1R antibody (IgG1 subclass …); experiment: ELISA assay B, tracer M1.7.10-Dig, target 13 ng/mL
Procedure: as §1

[17] = target: T4, anti-P-Selectin antibody (IgG4 subclass …); experiment: ELISA assay B, tracer M1.7.10-Dig, target 13 ng/mL
Procedure: as §1

[18] = target: T5, anti-VEGF/ANG2 antibody (wild-type IgG1 …); experiment: ELISA assay B, tracer M1.7.10-Dig, target 13 ng/mL
Procedure: as §1

[19] = target: T1, anti-VEGF/ANG2 antibody (IgG1 subclass …); experiment: ELISA assay B, tracer M1.7.10-Dig, target 100 ng/mL
Procedure: as §1

[20] = target: T2, anti-VEGF/ANG2 antibody (IgG1 subclass …); experiment: as above
Procedure: as §1

[21] = target: T3, anti-IGF-1R antibody (IgG1 subclass …); experiment: as above
Procedure: as §1

[22] = target: T4, anti-P-Selectin antibody (IgG4 subclass …); experiment: as above
Procedure: as §1

[23] = target: T5, anti-VEGF/ANG2 antibody (wild-type IgG1 …); experiment: as above
Procedure: as §1

signal [OD405 nm] [1] | signal [OD405 nm] [2] | signal [OD405 nm] [3] | signal [OD405 nm] [4] | signal [OD405 nm] [5] | signal [OD405 nm] [6] | signal [OD405 nm] [7] | signal [OD405 nm] [8] | signal [OD405 nm] [9] | signal [OD405 nm] [10] | signal [OD405 nm] [11] | signal [OD405 nm] [12] | signal [OD405 nm] [13] | signal [OD405 nm] [14] | signal [OD405 nm] [15] | signal [OD405 nm] [16] | signal [OD405 nm] [17] | signal [OD405 nm] [18] | signal [OD405 nm] [19] | signal [OD405 nm] [20] | Binder | further results
1.17 OD405 nm | 1.22 OD405 nm | 1.21 OD405 nm | 1.18 OD405 nm | 1.17 OD405 nm | 0.035 OD405 nm | 0.196 OD405 nm | 0.045 OD405 nm | 0.048 OD405 nm | 0.046 OD405 nm | 1.22 OD405 nm | 1.17 OD405 nm | 1.18 OD405 nm | 0.034 OD405 nm | 0.217 OD405 nm | 0.044 OD405 nm | 0.047 OD405 nm | 0.042 OD405 nm | 0.035 OD405 nm | 0.216 OD405 nm | anti-PG variant Fc-region antibody M1.3.17 (antibody, V domains shown, Monomeric, bivalent full-length antibody with murine variable domains; Biotinylated when used as capture antibody; also called anti-PG antibody clone 1.3.17; M1.3.17-Bi) VH: EVKLLESGGGLVQPGGSLKLSCAASGIDFRRYWMNWVRQAPGKGLEWIGEIDPDSSTINYTPSLKDKFIISRDNAKNTMYLQMRKVRSEDTALYYCARPYDYGAWFAYWGQGTLVTVSA VL: QAVVTQESALTTSPGETVTLTCRSTTGAVTTSNYANWVQEKPDHLFTGLIGGTNKRAPGVPARFSGSLIGDKAALTITGAQTEDEAIYFCALWYSDHWVFGGGTKLTVL | signal [OD405 nm] [21]: 0.05 OD405 nm; signal [OD405 nm] [22]: 0.048 OD405 nm; signal [OD405 nm] [23]: 0.043 OD405 nm
0.079 OD405 nm | 0.06 OD405 nm | 0.069 OD405 nm | 0.053 OD405 nm | 0.057 OD405 nm | 0.053 OD405 nm | 2.98 OD405 nm | 0.039 OD405 nm | 0.037 OD405 nm | 0.038 OD405 nm | 0.082 OD405 nm | 0.08 OD405 nm | 0.073 OD405 nm | 0.053 OD405 nm | 3.15 OD405 nm | 0.043 OD405 nm | 0.037 OD405 nm | 0.04 OD405 nm | 0.057 OD405 nm | 3.23 OD405 nm | anti-PG variant Fc-region antibody M1.7.24 (monomeric, bivalent) (antibody, V domains shown, Full-length Y-shaped antibody with murine variable domains; Biotinylated when used as capture antibody; also called anti-PG antibody clone 1.7.24; M1.7.24-Bi) VH: EVKLLESGGGLVQPGGSLKLSCAASGFDFSRYWMNWVRQAPGKGLEWIGEITPDSSTINYTPSLKDKFIISRDNAKNTLYLQMIKVRSEDTALYYCVRPYDYGAWFASWGQGTLVTVSA VL: QAVVTQESALTTSPGETVTLTCRSSTGAVTTSNYANWVQEKPDHLFTGLIGGTNKRAPGVPARFSGSLIGDKAALTITGAQTEDEAIYFCALWYSNHWVFGGGTKLTVL | signal [OD405 nm] [21]: 0.098 OD405 nm; signal [OD405 nm] [22]: 0.05 OD405 nm; signal [OD405 nm] [23]: 0.047 OD405 nm
0.06 OD405 nm | 0.06 OD405 nm | 0.104 OD405 nm | 0.051 OD405 nm | 0.064 OD405 nm | 0.039 OD405 nm | 0.053 OD405 nm | 2.73 OD405 nm | 0.04 OD405 nm | 0.039 OD405 nm | 0.076 OD405 nm | 0.069 OD405 nm | 0.076 OD405 nm | 0.041 OD405 nm | 0.066 OD405 nm | 2.85 OD405 nm | 0.042 OD405 nm | 0.046 OD405 nm | 0.052 OD405 nm | 0.21 OD405 nm | anti-AAA variant Fc-region antibody M1.6.22 (antibody, V domains shown, Murine variable domains; also called M1.6.22-Bi) VH: EVQLVESGGDLVKPGGSLKLSCAASGFTFSSYGMSWVRQTPDKRLEWVATISSGGSYIYYPDSVKGRFTISRDNAKNTLYLQMSSLKSEDTAMYYCARLGMITTGYAMDYWGQGTSVTVSS VL: DVLMTQTPLSLPVSLGDQASISCRSSQTIVHSTGHTYLEWFLQKPGQSPKLLIYKVSNRFSGVPDRFSGSGSGTDFTLKISRVEAEDLGVYYCFQGSHVPYTFGGGTKLEIK | signal [OD405 nm] [21]: 2.9 OD405 nm; signal [OD405 nm] [22]: 0.051 OD405 nm; signal [OD405 nm] [23]: 0.061 OD405 nm

— patent US20240410900A1 (Hoffmann-La Roche, published 2024)
